Laboratory results from patent US20110008279A1, “Methods and Compositions Relating to Adhesins as Adjuvants” (priority 2005, published 2011).
Several values for one entry are separate records, joined by “and”; a condition that tells them apart may be missing. Equal values may be shown once. Read-outs that look alike come from different tables or passages of the source.

Assays:
[1] = test system: mo-DCs; test: Cytokine and chemokine secretion by mo-DCs (Bio-Plex, ELISA); assay type: cell-based, human; conditions: after IFN-γ priming; flagellin 10 μg/ml, CpG 10 μg/ml, maximal LPS
Procedure: Reagents used were tested for low endotoxin contamination using the Limulus amoebocyte assay (Sigma). Dendritic cells were generated from human peripheral blood mononuclear cells (PBMC) as described previously. In brief, PBMC were isolated from buffy coats of healthy donors by Ficoll-Paque Plus density gradient centrifugation (Amersham Pharmacia Biotech AB). Separate monocyte and T-cell fractions were obtained from PBMCs by Percoll density gradient centrifugation (Amersham Pharmacia Biotech AB). Residual T and B cells were removed from monocyte fraction by plastic adherence of 3×10^6 cells per well in 6-well plates (Costar) resulting in CD14^+ monocyte populations of >95% purity (determined by flow cytometry). DC were obtained by 6-d culture adherent monocytes in medium with 20 ng/ml IL-4 (5×10^6 units/mg, Peprotech) and 50 ng/ml GM-CSF (1×10^7 units/mg, Peprotech). Cytokines were added again on day 4 in RPMI-1640 medium supplemented with 10% FBS. Following this procedure more than 90% cells belonged to the immature DC phenotype (CD1a^+, HLADRlow, CD14^−, CD83^−, CD86^low, CD80^low). On day 5 cells were treated with nothing or with recombinant human IFN-γ (1000 U/ml) for 18 h before stimulation with NadA (0.0375-5 μM) or LPS (1 μg/ml). After 24 h cells were harvested and analysed. Culture supernatants were collected frozen in liquid nitrogen and conserved at −80° C. for cytokine analysis.
The antibody pairs used, directed against different non-competing epitopes of a given cytokine, were purchased from BioRad. Calibration curves from recombinant cytokine standard were prepared with four-fold dilution steps in RPMI-1640 medium containing 10% FBS. Assays were carried out in 96-well sterile pre-wetted filter plates at room temperature and protected from light. A mixture containing 5000 microspheres per cytokine was incubated together with standard or sample in a final volume of 50 μl for 30 min, under continuous shaking (300 rpm). After three washes by vacuum filtration with Bio-Plex washing buffer a cocktail of biotinylated antibodies diluted in Bio-Plex detection antibody diluent was added (25 μl to each well). After a 30 minutes incubation and washing, Streptavidin-PE diluted in Bio-Plex Assay buffer was added (50 μl per well). At the end of 10 minutes incubation under continuous shaking and after washing the fluorescence intensity of the beads was measured in a final volume of 125 μl of Bio-Plex assay buffer. Data analysis was done with Bio-Plex Manager software using a five-parametric-curve fitting. The detection limits were […].
IL12(p40) was measured by capture enzyme-linked immunosorbent assay (ELISA) with antibody pairs and cytokine standard purchased from Bender MedSystems. The concentrations of IL12(p40) in the cell-free supernatants were determined with ELISA kits according to the manufacturer's instructions. The detection limit of the assays was […].

[2] = test system: mo-DCs; test: Expression of maturation markers on mo-DCs (flow cytometry); assay type: cell-based, human; conditions: flagellin 10 μg/ml; for CD86 expression: LPS 0.1 μg/ml
Procedure: Reagents used were tested for low endotoxin contamination using the Limulus amoebocyte assay (Sigma). Dendritic cells were generated from human peripheral blood mononuclear cells (PBMC) as described previously. In brief, PBMC were isolated from buffy coats of healthy donors by Ficoll-Paque Plus density gradient centrifugation (Amersham Pharmacia Biotech AB). Separate monocyte and T-cell fractions were obtained from PBMCs by Percoll density gradient centrifugation (Amersham Pharmacia Biotech AB). […] DC were obtained by 6-d culture adherent monocytes in medium with 20 ng/ml IL-4 (5×10^6 units/mg, Peprotech) and 50 ng/ml GM-CSF (1×10^7 units/mg, Peprotech). Cytokines were added again on day 4 in RPMI-1640 medium supplemented with 10% FBS. […] After 24 h cells were harvested and analysed. Culture supernatants were collected frozen in liquid nitrogen and conserved at −80° C. for cytokine analysis.
After differentiation, DC were routinely stained with phycoerytrin conjugated monoclonal antibodies to human CD14, CD1a, CD83, CD86 (B7.2), CD80 (B7.1), MHC II (HLA-DR), purchased from BD-Pharminghen and Caltag. In parallel, cells were stained with the isotype matched control mAb. Cells were immunostained with the proper dilution of PE-conjugated anti human monoclonal antibodies at 4° C. for 30 min in 100 μl of phosphate-buffered saline pH 7.2 (PBS, GIBCO BRL) containing 1% FBS and 0.1% NaN3 (FACS buffer). After washing, propidium iodide was added to exclude dead cells and cell fluorescence intensities of the gated populations were measured with a EPICS XL-MCL (Coulter) flow cytometer and analyzed with EXPO 32ADC XL 3COLOR or WinMDI 2.8. software. Data were collected on 10000-20000 events.

[3] = test system: mo-DCs; test: Cytokine and chemokine secretion by mo-DCs (Bio-Plex, ELISA); assay type: cell-based, human; conditions: even after IFN-γ priming; flagellin, LPS 100 μg/ml (so in the source)
[4] = molecular target: high affinity binding sites for NadA on immature mo-DCs (human); test: flow cytometry of Alexa-NadA on mo-DCs, Scatchard plot
[5] = molecular target: low affinity binding sites for NadA on immature mo-DCs (human); test: as above
[6] = molecular target: high affinity binding sites for NadA on immature mo-DCs (human); test: flow cytometry of Alexa-NadA on mo-DCs, Scatchard analysis
[7] = molecular target: low affinity binding sites for NadA on immature mo-DCs (human); test: as above
[8] = molecular target: specific NadA binding sites on monocytes (human); test: NadA-I125 binding to monocytes, Scatchard plot; value counted on the homo-trimer
[9] = molecular target: NadA-specific binding sites on macrophage (human); test: flow cytometry (MFI), Alexa-NadA displaced by unlabelled NadA on macrophages, 37° C
[10] = molecular target: specific NadA binding sites on monocytes (human)

Substance | IL-12(p70) secretion [1] | CD86 expression on co-stimulation with R-848 ([2]; R-848 1 μM, after IFN-γ priming, NadA 1.5 μM) | CD86 expression ([2]; after IFN-γ priming, CpG up to 10 μg/ml) | CD86 expression ([2]; no IFN-γ priming) | IL-12 secretion with R-848 co-stimulation [3] | Kd [4] [nM] | fraction of binding sites [4] | Kd [5] | fraction of binding sites [5] [%] | Kd [6] [nM] | Kd [7] [nM] | Kd [8] [nM] | decrease of the signal with unlabelled NadA [9] [%] | Kd [10] [nM] | decrease of the signal with 5 uM unlabelled NadA [10] [%]
flagellin [reference compound] | comparable to that induced by both 0.25 μM (9 μg/ml) and 1.5 μM (50 μg/ml) NadA | not further increased | comparable to that induced by NadA 1.5 μM | significant increase | ineffective |  |  |  |  |  |  |  |  |  | 
NadAΔ351-405 (from UniProt P0DV44 24-350) |  |  |  |  |  | 50 to 100 | 30% and 20% | 3000 nM and 5000 nM | 70 to 80 | 90 | 4000 | 1000 | -50 | 3000 | -50
